# Source: IntAct's records for PubMed 15377662
# B1: Ras-related protein Rab-5A (Homo sapiens), P20339 (parent)
# chain: MASRGATRPNGPNTGNKICQFKLVLLGESAVGKSSLVLRFVKGQFHEFQESTIGAAFLTQTVCLDDTTVKFEIWDTAGQERYHSLAPMYYRGAQAAIVVYDITNEESFARAKNWVKELQRQASPNIVIALSGNKADLANKRAVDFQEAQSYADDNSLLFMETSAKTSMNVNEIFMAIAKKLPKNEPQNPGANSARGRGVDLTEPTQPTRNQCCSN
# Variants of: B1
# Settings: with p85a_bovin PIK3R1, P23727
# Sequence of p85a_bovin PIK3R1, P23727 (P23727 whole entry): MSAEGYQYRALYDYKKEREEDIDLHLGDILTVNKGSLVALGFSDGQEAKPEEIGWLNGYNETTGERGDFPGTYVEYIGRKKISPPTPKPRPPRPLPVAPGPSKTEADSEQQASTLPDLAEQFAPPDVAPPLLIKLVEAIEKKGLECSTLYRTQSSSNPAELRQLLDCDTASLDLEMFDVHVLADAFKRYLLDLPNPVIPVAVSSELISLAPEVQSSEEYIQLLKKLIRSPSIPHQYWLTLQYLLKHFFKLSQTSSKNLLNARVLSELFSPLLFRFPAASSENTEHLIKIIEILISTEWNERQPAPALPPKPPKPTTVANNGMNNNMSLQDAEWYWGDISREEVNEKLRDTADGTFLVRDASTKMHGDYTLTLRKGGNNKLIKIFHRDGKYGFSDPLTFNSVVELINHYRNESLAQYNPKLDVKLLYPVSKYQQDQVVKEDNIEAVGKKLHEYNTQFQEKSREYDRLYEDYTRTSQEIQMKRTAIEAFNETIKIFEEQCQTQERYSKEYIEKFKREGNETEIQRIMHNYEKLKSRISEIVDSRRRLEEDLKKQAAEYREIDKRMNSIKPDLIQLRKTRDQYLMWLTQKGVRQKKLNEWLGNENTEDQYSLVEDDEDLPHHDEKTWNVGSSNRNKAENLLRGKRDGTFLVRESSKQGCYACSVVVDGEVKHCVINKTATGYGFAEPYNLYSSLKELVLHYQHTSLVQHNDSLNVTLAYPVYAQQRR
row,effect of a mutation on the interaction,Variant
1,decreasing interaction,Q79L

# Variants of: B1
# Settings: with p85a_bovin PIK3R1, P23727
# Remark: another data set of the same source
row,effect of a mutation on the interaction,Variant
1,disrupting interaction,S34N
